The text below walks through data of US20080226630A1.

This assay has as its target RSV protein F (recombinant or purified F protein) (human respiratory syncytial virus, strain not stated). As to the kind of experiment: SPR Biacore 3000, Fab over amine-coupled recombinant protein F. Background: Surface plasmon resonance follows binding to a sensor surface in real time, without labels.

Broadly, the Kd is a measure of binding affinity in units of concentration. What is called koff is the rate constant with which the complex falls apart. As usually defined, the kon is the second-order rate constant of association. Turning to “Fab fragment derived from commercially available Palivizumab (Synagis)”, the equilibrium dissociation constant (Kd) is 3.78 nM, the koff was found to be 0.000757 s⁻¹, the association rate constant (kon) amounted to 200000 M⁻¹ s⁻¹ and the t1/2 is 15 min.
